# B1: recombinant mouse matrix metalloproteinase-9 (protein)
# chain: FQTFKGLKWDHHNITYWIQNYSEDLPRDMIDDAFARAFAVWGEVAPLTFTRVYGPEADIVIQFGVAEHGDGYPFDGKDGLLAHAFPPGAGVQGDAHFDDDELWSLGKGVVIPTYYGNSNGAPCHFPFTFEGRSYSACTTDGRNDGTPWCSTTADYDKDGKFGFCPSERLYTEHGNGEGKPCVFPFIFEGRSYSACTTKGRSDGYRWCATTANYDQDKLYGFCPTRVDATVVGGNSAGELCVFPFVFLGKQYSSCTSDGRRDGRLWCATTSNFDTDKKWGFCPDQGYSLFLVAAHEFGHALGLDHSSVPEALMYPLYSYLEGFPLNKDDIDGIQYLYGRGSKPDPRPPATTTTEPQPTAPPTMCPTIPPTAYPTVGPTVGPTGAPSPGPTSSPSPGPTGAPSPGPTAPPTAGSSEASTESLSPADNPCNVDVFDAIAEIQGALHFFKDGWYWKFLNHRGSPLQGPFLTARTWPALPATLDSAFEDPQTKRVFFFSGRQMWVYTGKTVLGPRSLDKLGLGPEVTHVSGLLPRRLGKALLFSKGRVWRFDLKSQKVDPQSVIRVDKEFSGVPWNSHDIFQYQDKAYFCHGKFFWRVSFQNEVNKVDHEVNQVDDVGYVTYDLLQCP
# Biological target: M-L2-IL12 (masked mouse IL-12 whose linker contains 3 repeats of VPLSLYSG), Q60837
# Sequence (Q60837 whole entry, looked up): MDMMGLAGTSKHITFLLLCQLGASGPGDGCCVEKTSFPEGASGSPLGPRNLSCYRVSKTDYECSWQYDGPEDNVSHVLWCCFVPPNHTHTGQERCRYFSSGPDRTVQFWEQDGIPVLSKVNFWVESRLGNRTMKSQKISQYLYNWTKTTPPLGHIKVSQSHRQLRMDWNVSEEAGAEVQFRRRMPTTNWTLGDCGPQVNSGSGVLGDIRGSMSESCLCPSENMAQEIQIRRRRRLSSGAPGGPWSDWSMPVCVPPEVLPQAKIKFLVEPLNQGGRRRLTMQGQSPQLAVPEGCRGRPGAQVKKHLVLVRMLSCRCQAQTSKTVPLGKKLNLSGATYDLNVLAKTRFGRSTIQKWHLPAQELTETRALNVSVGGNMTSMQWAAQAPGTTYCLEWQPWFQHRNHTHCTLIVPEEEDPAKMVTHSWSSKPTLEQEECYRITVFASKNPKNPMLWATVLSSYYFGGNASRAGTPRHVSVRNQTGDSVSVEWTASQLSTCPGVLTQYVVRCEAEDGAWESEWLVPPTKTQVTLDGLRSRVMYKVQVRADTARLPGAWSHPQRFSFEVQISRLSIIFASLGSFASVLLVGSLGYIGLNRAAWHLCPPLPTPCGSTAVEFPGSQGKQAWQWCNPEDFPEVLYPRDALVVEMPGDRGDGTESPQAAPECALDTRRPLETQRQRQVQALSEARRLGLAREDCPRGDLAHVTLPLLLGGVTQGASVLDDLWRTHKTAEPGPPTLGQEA
protein,measurement,value
B1,"in vitro cleavage, 30 min at 37° C., SDS-PAGE",Decrease of molecular weight from ˜105 kDa to ˜60 kDa indicates proteolytic cleavage of IL12Rβ1-VP-IL12 and IL12Rβ1-LS-IL12

# From US20240228586
